Reference: patent US20220396628A1
Numbering of substitutions follows the chain as printed.

B1: KIP-10 Clone 63-2 (antibody, V domains shown)
VH: QQQLEESGGGLVKPGGTLTLTCKASGFSFSSDYDMCWVRQAPGKGLEWIACIYAGSSDNTYYATWAKGRFTISKTSSTTVTLQMTSLTAADTATYFCARDTADINFYFKLWGPGTLVTVSS
VL: DIVMTQTPASVSAAVGGTVTIKCQASESVSRWLAWYQQKPGQPPNLLIYSASTLASGVPSRFRGSGSGTEYTLTISDLECADAATYYCQGGYYSGGETYHNSFGGGTEVVVK
B2: KIP-10 Clone 15-2 (antibody, V domains shown)
VH: QEQLVESGGGLVKPGASLTLTCKASGFSFSVGYDMCWVRQAPGKGLEWIACIDTDSSSRTWNASWAKGRFTISKPSSTTVTLQMTSLTAADTATYFCARNDDTSGWGSKLWGPGTLVTVSS
VL: DVVMTQTPASVSEPVGGTVTIKCQASQTIGSALAWYQQKPGQPPKLLIYTASNLASGVSSRFKGSRSGTEFTLTISDLECADAATYYCQHTFYGTSYVDAFGGGTEVVVK
B3: KIP-10 Clone 148-4 (antibody, V domains shown)
VH: QEQLEESGGDLVKPEGSLTLTCTASGFSFSGSFDVCWVRQAPGKGLEWIACIVVDSSDRTWYASWAKGRFTISKPSSTTVTLQMTSLTAADTATYFCARNDDTSGWGFNLWGPGTLVTVSS
VL: B2 VL with V3T, T28S, Y49W, E70D, H90C, F92Y, T95S, V98I, D99N
B4: KIP-10 Clone 160-1 (antibody, V domains shown)
VH: QSLEESGGDLVKPGASLTLTCTASGFSFSSNYFVCWVRQAPGKGLEWVGCINPGSGRTYSASWAKGRFTISKSSSTTVTLQMTSLTAADTATYFCARDRPGSDDYYMRDLWGPGTLVTVSS
VL: DPVMTQTPASVSEPVGGTVTINCQASESIGSSLAWYQQKPGQPPKLLIYAASTLASGVSSRFKGSGSGTQFTLTISDLECADAATYYCQCSYYLNTYVGNPFGGGTEVVVK
B5: KIP-10 Clone 180-2 (antibody, V domains shown)
VH: QSLEESGGGLVQPGGSLKLSCKASGFIFSDNYYMCWVRQAPGKGLELIACIYGGHIDTTYYASWVSGRFTSSKTSSTTVTLQLTSLTAADTATYFCARRTIYDDNDDYSYALHLWGPGTLVTVSS
VL: ALVMTQTPSSVSEPVGGTVTINCQASQSISNLLAWYQQKPGQPPKLLIYGASNLESGVPSRFKGSGSGTEYTLTISGVECADAATYYCQQGDSSSNLDNTFGGGTEVVVK
B6: KIP-10 Clone 147-1 (antibody, V domains shown)
VH: QEQLEESGGDLVKPEGSLTLTCTASGFSFSGDYYMCWVRQAPGKGLEWIACIYVGSYIYSFYASWAKGRFTISRTSSTTVTLQMTSLTAADTATYFCARDPFATDSDVVSLWGPGTLVTVSS
VL: AVVLTQTPASVSAAVGGTVTINCQASQSISTVLAWYQQKPGQRPKLLIYWASTLASGVPSRFKGSGSGTQFTLTISGVECDDAATYYCAGYKSYSNDDGAFGGGTEVVVK
B7: KIP-10 Clone 103-2 (antibody, V domains shown)
VH: QSVEESGGRLVTPGTPLTLTCTVSGFSLGSYYMSWVRQAPGKGLEWIGIIYQSGNTDYASWAKGRFTISKTSSTTVDLKMTSLTTEDTATYFCAREGYAGYVGYSYNIWGPGTLVTVSS
VL: AYDMTQTPASVSAAVGGTVSINCQASEDIESYLAWYQQRPGQPPKLLIYSASTLASGVSSRFKGSGSGTQFTLTISDLECADAATYYCQQGASSNDVEEPFGGGTEVVVK

Columns and labels:
[1] = target: control CAR 2, expressed on T cells; assay: flow cytometry histogram; hybridoma clonal supernatant on control CAR 2-expressing T cells, detected with FITC goat anti-rabbit F(ab')2; fraction of events in the CAR+ gate
[2] = target: anti-CLL-1 CAR (chimeric antigen receptor presenting the anti-CLL-1 scFv), expressed on primary human T cells; assay: flow cytometry histogram; hybridoma clonal supernatant on anti-CLL-1 CAR-transduced primary human T cells, detected with FITC goat anti-rabbit F(ab')2; fraction of events in the CAR+ gate
[3] = target: control CAR3, expressed on T cells; assay: flow cytometry histogram; hybridoma clonal supernatant on control CAR 3-expressing T cells, detected with FITC goat anti-rabbit F(ab')2; fraction of events in the CAR+ gate; parameters: unit not given here

| Binder | CAR+ [1] | CAR+ [2] | CAR+ [3] |
| --- | --- | --- | --- |
| B1 | 0.021 | 57.8 | – |
| B2 | 0.063 | 58 | 0.011 |
| B3 | 0.021 | 55.8 | 0.011 |
| B4 | 0.021 | 55.6 | 0.011 |
| B5 | – | 57.7 | 0.011 |
| B6 | 0.053 | 57.7 | 0.011 |
| B7 | 0.011 | 55.9 | – |
